Source: doi:10.1101/767665
Like-named read-outs stand apart in the source and are kept apart here.

What was measured:
[1] = biological target: heliorhodopsin 48C12 (actinobacterium (fosmid from freshwater lake Kinneret)); assay: crystal structure
[2] = biological target: heliorhodopsin 48C12 (actinobacterium (fosmid from freshwater lake Kinneret)); assay: crystal structure; remark: listed apart in the source

“heliorhodopsin 48C12 (from UniProt A0A2R4S913 1-256) (natural protein)” was tested, and the stoichiometry N [1] was 2 and the stoichiometry N [2] was 2.
